Tests used:
nAPG07433.1-APG05840 = nAPG07433.1-APG05840 (synthetic); experiment: cell_activity; HEK293FT; C>G predominant; PAM SEQ 152; details: tags: SV40 NLS, 3xFLAG N-term; nucleoplasmin NLS C-term
nAPG07433.1-APG09980 = target: T1, nAPG07433.1-APG09980 (synthetic); experiment: as above; details: tags: SV40 NLS, 3xFLAG N-term; nucleoplasmin NLS C-term
T1 chain: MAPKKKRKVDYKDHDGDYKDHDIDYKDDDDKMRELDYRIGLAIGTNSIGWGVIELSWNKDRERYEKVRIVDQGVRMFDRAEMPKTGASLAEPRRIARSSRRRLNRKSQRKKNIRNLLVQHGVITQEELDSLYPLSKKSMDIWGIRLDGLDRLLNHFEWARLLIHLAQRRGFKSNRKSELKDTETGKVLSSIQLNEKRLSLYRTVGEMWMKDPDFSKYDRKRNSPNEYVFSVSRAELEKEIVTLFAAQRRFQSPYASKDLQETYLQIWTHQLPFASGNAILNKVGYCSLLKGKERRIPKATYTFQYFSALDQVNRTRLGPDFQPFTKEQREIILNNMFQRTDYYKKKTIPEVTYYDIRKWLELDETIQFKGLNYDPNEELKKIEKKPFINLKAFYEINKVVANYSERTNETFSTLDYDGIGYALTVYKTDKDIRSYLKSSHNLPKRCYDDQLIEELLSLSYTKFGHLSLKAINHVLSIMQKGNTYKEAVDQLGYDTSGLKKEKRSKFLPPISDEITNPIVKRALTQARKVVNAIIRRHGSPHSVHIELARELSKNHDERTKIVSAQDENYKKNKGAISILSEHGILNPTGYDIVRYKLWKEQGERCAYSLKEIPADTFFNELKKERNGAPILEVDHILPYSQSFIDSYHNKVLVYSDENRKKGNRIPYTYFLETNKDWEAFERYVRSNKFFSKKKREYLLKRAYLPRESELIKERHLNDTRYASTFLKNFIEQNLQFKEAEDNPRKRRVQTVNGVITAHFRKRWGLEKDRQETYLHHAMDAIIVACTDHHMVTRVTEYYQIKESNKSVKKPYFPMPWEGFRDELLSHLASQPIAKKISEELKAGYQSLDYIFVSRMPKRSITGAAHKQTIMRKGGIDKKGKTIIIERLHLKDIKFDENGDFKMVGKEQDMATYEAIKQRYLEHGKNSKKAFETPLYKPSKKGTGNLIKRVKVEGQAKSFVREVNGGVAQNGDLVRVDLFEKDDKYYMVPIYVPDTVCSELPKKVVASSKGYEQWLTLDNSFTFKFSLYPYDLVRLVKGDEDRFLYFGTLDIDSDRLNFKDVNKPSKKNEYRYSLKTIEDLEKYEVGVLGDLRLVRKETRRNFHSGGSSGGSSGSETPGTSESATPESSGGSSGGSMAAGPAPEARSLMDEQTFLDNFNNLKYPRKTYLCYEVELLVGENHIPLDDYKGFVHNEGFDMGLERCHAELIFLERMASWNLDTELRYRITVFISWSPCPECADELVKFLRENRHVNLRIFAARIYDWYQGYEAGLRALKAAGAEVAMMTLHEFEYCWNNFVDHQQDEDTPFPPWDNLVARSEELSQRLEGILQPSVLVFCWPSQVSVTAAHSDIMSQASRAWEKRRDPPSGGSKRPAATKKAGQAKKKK

B1: SGN000930 sgRNA ; SGN000930 target (ssRNA ; dsDNA)
RNA: GAACAACUCAAAUGGAAAUGAAUAUGUCAUAGUUCCAUGAAAGCCAAAAGUGGCUUUGAUGUUUCUAUGAUAAGGGUUUCGGCCCGUGGCGUCGGGGAUCGCCUGCCCAUUCCGAUGGGCUUCUCCCCAUUUAUU
DNA 1: GAACAACTCAAATGGAAATGAATAT
DNA 2: ATATTCATTTCCATTTGAGTTGTTC
activity (nAPG07433.1-APG05840): 17.5 % mutated reads | activity (nAPG07433.1-APG09980): 18.4 % mutated reads
